This is an account of results in article PMC4489650, “Aurora-A-Dependent Control of TACC3 Influences the Rate of Mitotic Spindle Assembly” (PLoS Genetics, 2015).

Assay [1] has as its target T1, TACC3-H6c phospho-null mutant (SA: S34A, S552A, S558A) (human, UniProt Q9Y6A5 1-838, S34A | S552A | S558A).
T1 construct: TACC3, human, full length, three Aurora-A phosphorylation sites mutated to alanine; source: recombinant, expressed from pET-44C3, purified; not shown: His6, C-terminal, kept
The assay is described as follows: pull-down; GST co-precipitation: 100 ug GST-AurA-DN (2 uM in the TPX2 gradient experiment, with 5 uM TACC3act-H6c and 1-50 uM His6-TPX2^1-43) immobilised on Gluthathione Sepharose 4B; 100 ug TACC3 or TPX2^1-43 added, 2 hrs at 4 C; 50 mM Tris pH 7.5, 150 mM NaCl, 5 mM MgCl2, 5 mM beta-mercaptoethanol, 0.02% TWEEN 20; SDS-PAGE and anti-His6 blot. The settings on record: both partners purified.

The target of assay [2] is T2, TACC3-H6c phospho-mimic mutant (SE: S34, S552 and S558 mutated to glutamic acid) (human, UniProt Q9Y6A5 1-838, S34 to glutamic acid | S552 to glutamic acid | S558 to glutamic acid).
T2 construct: TACC3, human, full length, three Aurora-A phosphorylation sites mutated to glutamic acid; source: recombinant, expressed from pET-44C3, purified; not shown: His6, C-terminal, kept
The assay is described as above. To be noted: both partners purified.

The target of assay [3] is T3, TACC3-H6c (full-length human TACC3 with a C-terminal non-cleavable His-tag) (human, UniProt Q9Y6A5 1-838).
T3 construct: TACC3, human, full length; also called full-length TACC3; TACC3-H6c WT; source: recombinant, expressed from pET-44C3, purified; not shown: His6, C-terminal, kept
Described as above. To be noted: both partners purified.

The next assay deals with T4, AurA-DN C290A, C393A (UniProt O14965 122-403, D274N | C290A | C393A).
T4 construct: also called Aurora-A kinase domain (SEC); source: recombinant, purified; not further stated
T4 sequence (looked up): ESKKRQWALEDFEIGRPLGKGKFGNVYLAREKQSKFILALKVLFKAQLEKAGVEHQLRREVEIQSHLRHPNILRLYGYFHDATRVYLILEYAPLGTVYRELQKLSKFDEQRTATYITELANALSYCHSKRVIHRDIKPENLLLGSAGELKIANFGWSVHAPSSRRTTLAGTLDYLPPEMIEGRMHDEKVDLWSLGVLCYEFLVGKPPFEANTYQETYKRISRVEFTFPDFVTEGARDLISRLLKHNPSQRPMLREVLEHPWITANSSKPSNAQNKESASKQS
The assay is described as follows: SEC; AurA-DN C290A, C393A, TPX2^1-43 and TACC3act alone and in complex on a HiLoad Superdex 200 16/60 column; fractions analysed by SDS-PAGE. The settings on record: both partners purified. Background: In gel filtration, larger molecules generally elute earlier.

Assay [4] concerns the target T5, AurA-DN (unphosphorylated Aurora-A 122–403 D274N) (UniProt O14965 122-403, D274N).
T5 sequence: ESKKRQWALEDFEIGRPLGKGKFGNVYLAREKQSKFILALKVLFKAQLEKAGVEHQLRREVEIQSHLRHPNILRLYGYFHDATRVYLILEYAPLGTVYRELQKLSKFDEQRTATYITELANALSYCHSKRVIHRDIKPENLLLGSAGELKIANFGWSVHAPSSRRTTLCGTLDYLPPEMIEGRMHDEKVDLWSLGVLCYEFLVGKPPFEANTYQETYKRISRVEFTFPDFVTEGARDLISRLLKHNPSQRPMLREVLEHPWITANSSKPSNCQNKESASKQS
The assay is described as follows: NMR; residue pair 520/521.

For assay [5], the target named is T6, complex of AurA-DN/TPX2^1-43 (UniProt O14965 122-403; Q9ULW0 1-43, D274N). The assay is described as follows: NMR; residue pair 519/520, with TPX2 1-43.
In assay [6] the target is T7, complex of AurA-DN/TPX2^1-43 (UniProt O14965 122-403; Q9ULW0 1-43, D274N).
T7 construct: TPX2, first 43 amino acids; Added as a complex in the NMR titration; source: mixed from the purified recombinant proteins m8 and m12
T7 sequence (looked up) 1: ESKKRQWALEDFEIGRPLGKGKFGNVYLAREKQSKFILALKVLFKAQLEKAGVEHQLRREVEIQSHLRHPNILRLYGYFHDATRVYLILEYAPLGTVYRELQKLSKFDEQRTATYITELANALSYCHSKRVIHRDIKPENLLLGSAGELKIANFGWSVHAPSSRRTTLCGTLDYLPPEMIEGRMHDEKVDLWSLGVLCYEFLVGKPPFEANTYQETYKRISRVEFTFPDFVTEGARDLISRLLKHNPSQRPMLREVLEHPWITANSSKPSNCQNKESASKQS
T7 sequence (looked up) 2: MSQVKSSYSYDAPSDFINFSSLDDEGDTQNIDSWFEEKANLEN
The assay is described as follows: NMR titration; 15N-labelled TACC3act (75 uM constant in titrations) with unlabelled AurA-DN or the AurA-DN/TPX2^1-43 complex at 0-225 uM; 1H-15N HSQC; 20 mM potassium phosphate pH 7.0, 50 mM NaCl, 1 mM DTT, 0.02% sodium azide, 5 mM ADP/MgCl2; chemical shift changes fit to Eq 1. To be noted: both partners purified.

The target of assay [7] is T8, AurA-DN (unphosphorylated Aurora-A 122–403 D274N) (UniProt O14965 122-403, D274N).
T8 construct: source: recombinant, expressed from pET30TEV, purified (Chelating Sepharose, SEC), dialysed into NMR buffer with 5 mM ADP/MgCl2
T8 sequence (looked up): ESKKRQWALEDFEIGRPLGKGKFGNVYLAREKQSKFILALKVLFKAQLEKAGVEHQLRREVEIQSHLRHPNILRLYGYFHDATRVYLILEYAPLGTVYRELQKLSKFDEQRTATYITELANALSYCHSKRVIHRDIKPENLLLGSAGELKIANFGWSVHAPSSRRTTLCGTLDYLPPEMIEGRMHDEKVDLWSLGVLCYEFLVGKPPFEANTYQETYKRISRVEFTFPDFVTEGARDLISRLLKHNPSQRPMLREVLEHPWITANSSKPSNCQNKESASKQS
The assay is described as above. To be noted: both partners purified.

For assay [8], the target named is T6, complex of AurA-DN/TPX2^1-43. The assay is described as follows: NMR; residue pair 520/521, with TPX2 1-43.
Assay [9] addresses T9, Aurora-A 122–403 C290A, C393A (UniProt O14965 122-403, C290A | C393A, labelled with NT-647-NHS dye).
T9 construct: also called labelled Aurora-A; source: recombinant, expressed from pET30TEV, purified (Chelating Sepharose, SEC)
T9 sequence (looked up): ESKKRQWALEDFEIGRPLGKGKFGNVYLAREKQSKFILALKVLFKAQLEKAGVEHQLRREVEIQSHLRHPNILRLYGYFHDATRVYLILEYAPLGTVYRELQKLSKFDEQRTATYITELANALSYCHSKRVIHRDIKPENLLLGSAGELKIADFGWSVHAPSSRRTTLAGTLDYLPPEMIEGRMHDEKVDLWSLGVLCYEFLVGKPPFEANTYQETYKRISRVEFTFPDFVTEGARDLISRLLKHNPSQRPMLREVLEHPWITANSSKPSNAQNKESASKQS
The assay is described as follows: MST; 50 nM NT-647-labelled Aurora-A 122-403 C290A, C393A; TACC3act-H6c constructs 0.2-3950 uM; 50 mM Tris pH 7.6, 150 mM NaCl, 10 mM MgCl2, 5 mM beta-mercaptoethanol, 0.05% TWEEN 20; 25 C; one-site fit (Eq 2). The settings on record: both partners purified.

B1: GST-AurA-DN (GST fused to Aurora-A catalytic domain 122–403 D274N) (domain or fragment, UniProt O14965 122-403, looked up)
chain: ESKKRQWALEDFEIGRPLGKGKFGNVYLAREKQSKFILALKVLFKAQLEKAGVEHQLRREVEIQSHLRHPNILRLYGYFHDATRVYLILEYAPLGTVYRELQKLSKFDEQRTATYITELANALSYCHSKRVIHRDIKPENLLLGSAGELKIANFGWSVHAPSSRRTTLCGTLDYLPPEMIEGRMHDEKVDLWSLGVLCYEFLVGKPPFEANTYQETYKRISRVEFTFPDFVTEGARDLISRLLKHNPSQRPMLREVLEHPWITANSSKPSNCQNKESASKQS
notes: also called GST-Aurora-A; source: recombinant, expressed from pGEX-cs, purified (Gluthathione Sepharose 4B, SEC); not shown: GST, N-terminal, kept
As for B1, the binding result in assay [1], in assay [2] and in assay [3] was “binds” throughout.

B2: TACC3act (human TACC3 residues 519–563) (domain or fragment, UniProt Q9Y6A5 519-563, looked up)
chain: ELKEESFRDPAEVLGTGAEVDYLEQFGTSSFKESALRKQSLYLKF
notes: also called ^15N-labelled TACC3act; source: recombinant, expressed from pETM6T1, purified (SEC); 15N- or 15N/13C-labelled for NMR
By Kd is commonly meant the free concentration of one partner at which half of the binding sites on the other are occupied at equilibrium, for simple one-to-one binding. As to B2, the binding result with AurA-DN C290A, C393A is recorded as “binds”. For the same molecule, the Kd is 7.5 µM in assay [4]; 600 nM in assay [5]; 1100 ± 1200 nM in [6]; 8.2 ± 0.8 µM in assay [7]; 1600 nM in assay [8].

B3: TACC3act-H6c (human TACC3 residues 519–563 with a C-terminal His-tag) (domain or fragment, UniProt Q9Y6A5 519-563, looked up)
chain: ELKEESFRDPAEVLGTGAEVDYLEQFGTSSFKESALRKQSLYLKF
notes: also called TACC3act-H6c WT; WT TACC3act; source: recombinant, construct made by the same method as TACC3-H6c, purified; not shown: His6, C-terminal, kept
B3 showed a Kd in assay [9] of 5.7 ± 0.4 µM.

B4: TACC3act-H6c F525A (domain or fragment, human, UniProt Q9Y6A5 519-563, looked up)
chain: ELKEESARDPAEVLGTGAEVDYLEQFGTSSFKESALRKQSLYLKF
notes: also called F525A mutant; source: recombinant, purified; not shown: His6, C-terminal, kept
In [9], B4 yielded a Kd of 152 ± 9.3 µM.
